Test: yeast display, Sf9 membrane polyspecificity reagent, FACS + sequencing; frameworks hold sequencing errors
Summary of the method: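 A nanobody's polyreactivity label depends on the gate it was sorted from. Yeast display cells were stained with 10% biotinylated, detergent-solubilized Sf9 membrane reagent for 1 hour at 4 °C, enriched on streptavidin microbeads and sorted by FACS. The low and high (top ~1%) gates were set on anti-HA fluorescence for expression and streptavidin fluorescence for reagent binding.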

Sequence	polyreactivity (PSR sort gate)
QVELVESGGGLVQPGGSLRLSCAASGRTLSRYTMGWYRQAPGKERELVAAISTSGSTYYADSVKGRFTISRDNAKNTVYLQMNSLKPEDTAVYYCAADRFGIGGIRGNDYWGQGTQVTVSS	high polyreactivity
QVQLVESGVGLVQAGGSLRLSCAASGFTIYRYAMGWYRQAPGKERELVAAISRGVNTNYADSVKGRFTISRDNAKNTVYLQMNSLKPEETAVYDCAARYDNPSYRTTYGFWGQGTQVTLSS	high polyreactivity
QVQLVDSGGGLVQAGGSLRLSCAASGSTFYAYVMGWYRQAPGKERELVAGITWSGGSTYYADSVKGRFTISRDNAKNTVYLQMNSLKPEDTAVYYCAADYYNTYGYDYWGQGTQVTVSS	low polyreactivity
QVQLVESGGGLVQAGGSLRLSCAASGRTFRYYAMGWYRQAPGKERELVAAITWSVGSTYYADSVKGRFTISRDNAKNTVYLQMNSRKPEDTAVYYCAADRVRGGYRTYYWVVHFDYWGQGTQVTVSS	high polyreactivity
QVQLVESGGGLVQAGGSLRLSCAASGITFSRNVMGWYRQAPGKERELVAAISRSGGRTYYADSVKGRFTISRDTAKNTVYLQINSLKAEDTAVYYCNRDIGGTSVLDDYWGQGTQVTVSS	low polyreactivity
QVQLVESGGGLVLAGGSLRLSCAASGSTFRGNAMGWYRQAPGKERELVAAITRRGGSTYYADSVKGRFTISRDNAKNTVYLQMNSLKPEDTAVYYCAKVTTYVSAWQGNGYWGQGTQVTVSS	high polyreactivity
QVQLVESGGGLVQAGGSLRLSCAASGSIFNQYAMGWYRQAPGKERELVARIRGSTGTTYYADSVKGRFTISRDNAKNTVYLQMNSLKPEDTAVYYCNAARYQGRSRFDYWGQGTQVTVSS	high polyreactivity
QVQLVESGGGLVQAGGSLRLSCAASGRILYGYAMGWYRQAPGKERELVASITWSGGSTYADSVKGRFTISRDNAKNTVYLQMNSLKPEDTAVYYCATRRGPKWQWLTYGYWGQGTKVTVSS	low polyreactivity
QVQLVESGGGLVQAGGRLRLSCAASGRTFGYNAMGWYRQAPGKERELVAAITYSGGRTYYADSVKGRFTISRDNAKNTVYLQMNSLKPEDTAVYYCAALTRRVKKYDYWGQGTQVTVSS	high polyreactivity
QVQLVESGGGLVQAGGSLRLSCAASGFTFRYNAMGWYRQAPGKKGSWVAAISRTGGSTYYADSVKGRFTISRDNAKNTVYLQMNSLKPEDTAVYYCARAPEGTGGKYGYWGQGTQVTVSS	high polyreactivity
QVQLVESGGGLVQAGGSLRLSCAASGFIFYRYAIGWYRQEPGKERELVAAITRSGRSTYYADSVKGRFTISRDNAKNTVYLQMNSLKAEDTAVYYCAVFGSYWWRGLSEDYWGQGTQVTVSS	high polyreactivity
QVQLVESGGGLVQAGGSLRLSCAASGFTFPLYAMGWYRQAPGKERELVAAIRSSGGSTYYADSVKGRFTISRDNAKNTVYLQMNSLKPEDTAVYYCAKVRYTRRLDTYYYWGQGTQVTVSS	high polyreactivity
QVQLVESGGGLVQAGGSLRLSCAASGRIFVGYAMGWYRQAPGKERELVAAISARGGSTYYADSVMGRFTISRDNAKNTVYLQMNSLKPEDTADYYCAADEASSRGYYDSDYWGQCTQVTVSS	low polyreactivity
QVQLVESGGGLVQAGGSLRLSCAASGSTFFPNAMGWDRQAPGKERELVAAITRSDDDTYYADSVKGRFTISRVHAKNTVYLQMNCLKPEDTAVYYCAADGTSTDSPSWPGYEYWGQGTQVTVSS	low polyreactivity
QDQLVESGGGLVQAGGSLRLICAASASTFTRYAMGWYRQAPGKERELVACITGRGGSTYYADSVKGRFPISRDYAKNTVYLQMNCLKPEDTAVYYCARAEGKCPYSRYWPYRGGYDYWGQGTQVTRSS	high polyreactivity
QVQIVESGAGLVQAGGSLSLSCAASGSIFHDNAMGWYRQAPGKERELVAAINRGGSRHYADSVKGRFTISRDNAKNTVYFQMNSLKPEDTAVYYCAADGIRPEVGYWGQGTQVTVSS	low polyreactivity
QVQLVESGGGLVQAGGSLRLSCDASGRTFPINAMGWYRQAPGKERELVAAISSGDGITYYADSVKGRFTISRDNAKNTVYLQMNSLKPEDTAVYYCAKELSQGLRYDYWGQGTQVTVSS	high polyreactivity
QVQLVESGGGLVPAGGSLRLSCAASGSTFIPNTMGWYRQAPGKERELVAAISRRGGSTNYADSVKGRFTISRDNAKNTVYLQMNSLKPEDTAVYYCAAVSPRRYRYDYWGQGTQVTVSS	low polyreactivity
QVQLVESGGGLVQAGGSLRLSCAASGLPFRDYAMGWYRQAPGTERELVAAISDGDDSTSYADSVKGRFTSSRDNAKTTGYLQMNSQNPEDTAVYDCAPYLSDPDFLAGIYGLYNYWGQGTQVTVSS	low polyreactivity
QVQLVESGGGLVQAGGSLGLSCAASGFSFDRNAMGWYRQAPGKERGLVAAISSSGGRTYYPDSVKGRFTISRDYAKKTVYLQMNSLKPDDTAVYYCAAKLSRRYYYWGQGTQVTVSS	high polyreactivity
QVQLVESGGGLLQAGGSLRLSCAASGRIFGRNTKGWYRQAPGKERELVAVISWRGGSTYYADSVKGRFTISRDNAKNSVYLQMNSLKPEDTAVYYCNAKYPFSRRGDYWGQGTQVTVSS	high polyreactivity
QVQLVESGGGLVQAGGSLRLSCAASGSTFGVYAMGWYRPAPGKERELVAAIRWSGGGTYYADSVKGRFTISRDNAKNTVYLQMNSLKPEDTAVYYCNTDILSIYAEPYYFTDVDYWGQGTQVTVSS	low polyreactivity

Sequence	polyreactivity (PSR sort gate)
QVQLVESGGGLVQAGGSLRLSCAASGSTFWIYPMGWYRQAPGKERELVAAISNGDSTNYADSVKGRFTISRDNAKNTVYLQMNSLKPEDTAVYYCARQYRIFKTFKYDYWGQGTQVTVSS	low polyreactivity
QVQLVESGGGLVQAGGSLRLSSAASGSTIVLYTMGWYRQAPGKEWELVAAITNGTRTYYADSVKGRFTISRDNAKNTVYLQMNSLKPQDTAVYYCAVDGVKRGADLFYYWGHGTQVTVSS	high polyreactivity
QVQLVESGGGLVQAGGSLRLSCAASGRIFRDYDMGWYRQAPGKERELVASISTRGGSTYADSVKGRFTISRDNAKNTVYLQMNSLKPEDTAVYYCAADSSGFSRYDYWGQGSQVTVSS	low polyreactivity
QVQLVESGGGLVQAGGSLRLSCAASGSIFTYNAMGWYRQAPGKERELVAAIRLSGGSTYYADSVKGRFTISRDNAKNTVYLQMNSLKPEDTAVYYCATEYDYGSWYPDGWGIFDYWGQGTQVTVSS	low polyreactivity
QVQLVEKRGGLVQAGGILRLSCAASGCILVGYAMGWSRQAPGKERELVAAINYSGGSTNYADSVKGRFTISLDNAKNTVYLQMISLKPEDTAVYYCAARSTARYGYWGQGTQVTVSS	low polyreactivity
QVQLVESGGGLDQAGGSLRLSCAASGSIFPINAMGWYRQAPGKEREFDAAISSRGGSTYYADSVKGRFTISRDNAKNTVYFQMNSLKPEDTAVYYCAKYASVGYGRYPYDYWGQGTQVTVSS	high polyreactivity
QVQLVESGACLVQAGGSLRLSCAASGITLVNYAMGWYRQAPGKERELVAAISASGGSTYYADSVKGRFTISRDNAKNNVYLQMNSLKPEDTAVYYCAAEEEEFIYDYWGQGTQVTVSS	high polyreactivity
QVQLVESGGGLVQAGGSLRLSCAASGSTFYIYAMGWYRQAPGKERELVAAISGRGGSTYYADSVKGRFTISRDNAKNTVYLQMNSLKPEDTAVYYCATSLRVRRSSRDYWGQGTQVTVSS	high polyreactivity
QLQLVESGGGLVQARGSLRLSCAASGYIFGSYAMGWDRQAPGKERELVAANSKSGGSTYYADSVKGRFTISRDYAKNTVYLQMNSLKPEDTAVYYCAAAGIGGGGWGQGTQVTVSS	low polyreactivity
QVQLVESGGGLVQAGGSLRLSCAASGSTFGNNAMGLYRQAPGKERELVASINWNGGSTYYADSVKGRFTISRDNAKITVYLQMNSLKPEDTAVYYCNARLYFVEGQDYYYWGQGTQVTVSS	low polyreactivity
QVQLVESGGGLVQAGGSLRLSCAASGFIFVNKAMGWYRQAPGKERELVATISRGGSTNYADSVKGRFTISRDNAKNTVYLQMNSLKPEDTAVYYCNARRSVKVYGVDYWGQGTQVTVSS	high polyreactivity
QVQLVESGRGLVQAGGSLRLSCAASGSTFHGYPMGWYRQEPGKERELVAAITSGDSTNYADSVKGRYTISRDNAKNTVYLQMNSLKPEDTAVYYCAALQADRDRYPEFDLMDYWGQGTQVTVSS	low polyreactivity
QVQLVESRGGLVQAGGSLRLSCAASGSNFTLYAMGWYRQAPGKERELGATITISGGGTYYADSVKGRFTISRDNAKNTVYLQMNSLKPEDTAVYYCAVKSIVRRKGYTYYRYDYWGQGTQVTVSS	high polyreactivity
QVQLVESGGGLVQAGGSLRLSCAASGLTFQSYAMGWYRQAPGKERELVATISNGSSTYYADSVKGRFTISRDNAKNSVYLQMNSLKPEDTAVYYCAKDYYYSRNPLYGHDYWGQGTQVTVSS	low polyreactivity
QVQLVESGGGLVQAGGSLRLSCAASGRIFYQYAMGWYRQAPGKERELVAAISWNGGRTYYADSVKGRFTISRDNAKNTVYLQMNSPKPEDTAVYYCNAVASKSFYYRDNYWGQGTQVTVSS	high polyreactivity
QVQLVESGGGLVQEGGSLRLSCAASGSTFAANTMGWYRQAPGKERELVAAITVRGGSTYYADSVKGRFSMSRDNAKNTVYLQTNSLKPEDTAVYDCAAERPPYGYLVVGYVSTQYYYWGQGTQVTVSS	low polyreactivity
QVQLVESGGGLVQAGGSLRLSCAASGSTFGHYAMGWYRQAPGKERELVAAISWSGGSTSYADSVKGRFTISRDNAKNTVYLQMNSLKPEDTAVYYCNKRQEWFHFPYTRVYYWGQGTQLTVSS	low polyreactivity
QVQLVESGGGLVQAGGSLRLSCAASGSIFGTYAMGWYRQAPGKARELVAAITGSGGRTYYADSVKGRFTISRDNAKNTVYLQMNSLKPEDTAVYYCNKVVYVRSYPPRYDYWGQGTQVTVSS	high polyreactivity
QVQLVESGGGLVQAGGSLRLSCAASGIIFISNAMGWSRQAPGTERELVADITSGGGSTYYADSVKGRFTISRDNAKNTVDLQMNSLKPDDTAVYYGAKRATGAYVFFFDSWGQGTQVTVSS	low polyreactivity
QVQLVESGGGLVQAGGSLRLSCAASGSTLRDYVMGWYRQAPGKERELVAAITSRVDDTYYADSVKGRFTISRDNAKNTVYLQMNSLKPEDTAVYYCAKRYGRFYHYDYWGQGTQVTVSS	low polyreactivity
QVQLVESGGGLVQAGGSLRLSCAASGRTWFYAMGWYRQAPGKERELVAAISGSSGSTYYADSVKGRFTISRDNAKNTVYLQMNSLKPEDTAVYYCAADFWRFYYEYDYWGQGTQVTVSS	low polyreactivity
